# Columns and labels:
# [1] = target: B.1.351 variant RBD (K417N, E484K, N501Y) (SARS-CoV-2) (UniProt P0DTC2); assay: BLI
# [2] = target: B.1.617.1/3 variant RBD (L452R, E484Q) (SARS-CoV-2) (UniProt P0DTC2); assay: BLI
substance,measurement,setting,value
ACE2-COMP (from UniProt Q9BYF1 19-615; P35444 29-73),percent of bound ACE2-COMP retained after 8 h of dissociation,[1],90%
same,percent of bound ACE2-COMP retained after 8 h of dissociation,[2],90%
